Laboratory results reported in patent publication US20190248883 (published 2019).

What was measured:
[1] = biological target: GRO-beta (human, UniProt P19875); assay: ELISA
[2] = biological target: T1, IL-8 (human, UniProt P10145); assay: SPR, 25C, bivalent
[3] = biological target: IP-10 (human, UniProt P02778); assay: ELISA
[4] = biological target: GRO-alpha (human, UniProt P09341); assay: ELISA
[5] = biological target: T1, IL-8; assay: SPR, 37C, bivalent
[6] = biological target: T1, IL-8; assay: SPR, 37C
[7] = biological target: T1, IL-8; assay: SPR, 25C

T1 sequence (P10145 28-99): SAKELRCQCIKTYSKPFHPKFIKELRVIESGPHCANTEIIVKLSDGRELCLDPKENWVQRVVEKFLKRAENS
Chain of GRO-beta (P19875 35-107): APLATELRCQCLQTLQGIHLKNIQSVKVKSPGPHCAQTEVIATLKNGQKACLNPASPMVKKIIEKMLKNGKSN
Chain of IP-10 (P02778 22-98): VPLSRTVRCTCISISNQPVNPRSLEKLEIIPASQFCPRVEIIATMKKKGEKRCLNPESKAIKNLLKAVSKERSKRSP
Chain of GRO-alpha (P09341 35-107): as the sequence (P19875 35-107) above, with P2S, L3V, L20P, K27N, Q48R, M58I, K68N, N69S, G70D counted along it

B1: 10F8 IgG1,kappa (antibody, V domains shown)
VH: QVQLVESGGGVVQPGRSLRLSCTASGFTFSHYGMYWVRQAPGKGLEWVAVIWYDGSYEYNADSVKGRFTISRDNSKNTLYLQMNSLRAEDTAVYYCARDRVGLFDYWGQGTLVTVSS
VL: EIVLTQSPGTLSLSPGERATLSCRASQSISSSYLAWYQQKPGQAPRLLIYGPSSRATGIPDRFSGSGSGTDFTLTISRLEPEDFAVYYCQQYAGSLTFGPGTKVDIK
[1]
  binding result: no binding
[2]
  Kd: 0.01 nM
[3]
  binding result: no binding
[4]
  binding result: no binding
[5]
  Kd: 0.02 nM

B2: 10F8 Fab (antibody, V domains shown)
VH: B1 VH
VL: B1 VL
[6]
  Kd: 0.372 nM
[7]
  Kd: 0.194 nM
